Test results as given in paper PMC12246617, “Cryo-EM structures reveal the PP2A–B55α and Eya3 interaction that can be disrupted by a peptide inhibitor” (The Journal of Biological Chemistry, 2025).

Assays:
PP2A–B55 [1] = details: 6,8-difluoro-4-methylumbelliferyl phosphate substrate; cited from earlier work
Description: It is not surprising that ARPP19 and FAM122A inhibit the PP2A–B55 phosphatase activity since these two proteins bind on the surface of both B55 and C subunits, blocking access to the active site on C subunit.

B55α (His-B55) = assay: Microscale thermophoresis (MST) binding of Eya3 to labeled His-B55; parameters: species or system human; details: fluorescently labeled His-B55, vs Eya3 WT
Description: We expressed and purified Eya3 protein from Escherichia coli and the His-B55α subunit from insect cells (Fig. S1). In the remainder of the article, we will use B55 to represent B55α for simplicity and PP2A–B55 to represent the holoenzyme containing the A, B55, and C subunits. We labeled His-B55 with the RED–Tris–NTA dye and carried out microscale thermophoresis (MST) experiments with increasing concentrations of Eya3.
The modeled Eya3 peptide (residues 65–86) interacts mostly with residues on blades 3 and 4 of the β-propeller on the B55 surface (including residues on the β2D and β3A loop, β3B and β3C loop, and β3D and β4A loop) and with residues on the α1 and α2 helix positioned above blade 5, as well as the α2 and β6A loop (Fig. 1F). In particular, residue H79^Eya3 forms pi–pi or pi–cation stacking with H179^B55 and a hydrogen bond with D197^B55 (Fig. 2A). […] Furthermore, Y77^Eya3 forms a hydrogen bond with the main chain carbonyl of L225^B55, and K75^Eya3 forms another hydrogen bond with Y337^B55 (Fig. 2, B and C). […] We expressed and purified Eya3 K75A, Y77A, and H79A mutant proteins from E. coli and carried out MST experiments with fluorescently labeled His-B55. […] While we were working on the structure of PP2A–B55 + Eya3, Padi et al. ([84]) published the cryo-EM structure of PP2A–B55 in complex with an Eya3 peptide (residues 62–108) on bioRxiv.
FLAG-hB55, FLAG-hEya3, GFP, and GFP-B55i were cloned into the pCAG vector; (GST)-mEya3 was cloned into pGEX-6p1; His-hB56γ1 was cloned into pGEX-4T1; and His-hB55 was cloned in pFASTbac, all using the NEBuilder HiFi DNA Assembly Cloning Kit (New England Biolabs). h and m represent human and mouse proteins, respectively.
GST-mEya3 and mutants were expressed in BL21 cells. Cells were lysed in lysis buffer containing 50 mM Tris (pH 7.5), 250 mM NaCl, 5% glycerol, 1 mM DTT, and protease inhibitor cocktail (PIC; Thermo Scientific). Lysis was done in ice with sonication using 4 × 45 s pulses with 2-min off periods. NaCl was brought up to 0.5 M using 5 M NaCl, and the lysate was centrifuged for 40 min at 18,000g. Supernatant was gravity-flown over glutathione resin twice. Resin was washed with 100 ml of lysis buffer. GST was cleaved with PreScission protease and eluted into lysis buffer. Eluates were pooled and concentrated with Amicon Ultra Centrifugal filters. Concentrated protein was separated on a pre-equilibrated S200 column for size-exclusion chromatography. Peaks were combined, concentrated again, aliquoted, and stored at −80 °C.
His-B55 was expressed in Hi5 cells. […]
His-B55 or His-B56γ1 labeled with […] (NanoTemper) was added to serial dilutions of mEya3 in PBS with 0.05% Tween-20. The samples were then read with a Monolith NT.115^Pico (NanoTemper) according to the manufacturer’s instructions.

[2] = test system: apparent S/T phosphatase activity of Eya3; details: Eya3 mutant; cited from earlier work
Description: The modeled Eya3 peptide (residues 65–86) interacts mostly with residues on blades 3 and 4 of the β-propeller on the B55 surface (including residues on the β2D and β3A loop, β3B and β3C loop, and β3D and β4A loop) and with residues on the α1 and α2 helix positioned above blade 5, as well as the α2 and β6A loop (Fig. 1F). In particular, residue H79^Eya3 forms pi–pi or pi–cation stacking with H179^B55 and a hydrogen bond with D197^B55 (Fig. 2A). […] Furthermore, Y77^Eya3 forms a hydrogen bon ...

PP2A–B55 [3] = assay: Fluorescent phosphatase assay with OMFP substrate; format: biochemical, human; details: three independent biological replicates
Protocol: We noted that the buffer condition we used in our assay (50 mM Tris [pH 7.5], 50 mM NaCl, 5 mM MgCl2, and 0.1 mM EDTA) is substantially different from that used by Padi et al. (30 mM Hepes [pH 7.0], 150 mM NaCl, 1 mM MnCl2, 1 mM DTT, 0.01% Triton X-100, and 0.1 mg/ml bovine serum albumin) ([46], [84]).
Figure 5 Eya3 NTD and B55i inhibit the phosphatase activity of PP2A–B55.A, the phosphatase activity of PP2A–B55 in the absence and presence of Eya3 NTD in a fluorescent phosphatase assay using OMFP as a substrate under our previous buffer conditions ([46]). […] RFU, relative fluorescence units; NTD, N-terminal domain; OMFP, 3-O-methylfluorescein phosphate. […]
FLAG-PP2A–B55 was expressed and purified from cells transfected with pCAG-FLAG-B55, using the same method as FLAG-hEya3. […] Proteins were analyzed by SDS-PAGE, and fractions containing the PP2A–B55α holoenzyme were pooled, concentrated, aliquoted, and stored at −80 °C.
PP2A–B55 holoenzyme (25 nM) with or without 1 μM Eya3 NTD in 30 mM Hepes (pH 7.0), 150 mM NaCl, 1 mM MnCl2, 1 mM DTT, 0.01% Triton X-100, 0.1 mg/ml bovine serum albumin was incubated at room temperature for 10 min. […] Fluorescent OMFP, corresponding to phosphatase activity, was read using a BioTek Synergy H1 plate reader (excitation at 485 nm and emission at 515 nm).

B1: FAM122A: a protein inhibitor that binds to both the B and C subunits (protein, UniProt Q96E09 1-287, looked up)
PPP2R1A-PPP2R2A-interacting …: MAQEKMELDLELPPGTGGSPAEGGGSGGGGGLRRSNSAPLIHGLSDTSPVFQAEAPSARRNSTTFPSRHGLLLPASPVRMHSSRLHQIKQEEGMDLINRETVHEREVQTAMQISHSWEESFSLSDNDVEKSASPKRIDFIPVSPAPSPTRGIGKQCFSPSLQSFVSSNGLPPSPIPSPTTRFTTRRSQSPINCIRPSVLGPLKRKCEMETEYQPKRFFQGITNMLSSDVAQLSDPGVCVSSDTLDGNSSSAGSSCNSPAKVSTTTDSPVSPAQAASPFIPLDELSSK
phosphatase activity of PP2A–B55 in vitro (PP2A–B55 [1]): inhibit the phosphatase activity of PP2A–B55 in vitro

B2: ARPP19: a protein inhibitor that binds to both the B and C subunits (protein, UniProt P56211 2-112, looked up)
cAMP-regulated phosphoprotein …: SAEVPEAASAEEQKEMEDKVTSPEKAEEAKLKARYPHLGQKPGGSDFLRKRLQKGQKYFDSGDYNMAKAKMKNKQLPTAAPDKTEVTGDHIPTPQDLPQRKPSLVASKLAG
phosphatase activity of PP2A–B55 in vitro (PP2A–B55 [1]): inhibit the phosphatase activity of PP2A–B55 in vitro

B3: K75A: Eya3 K75A mutant protein from E. coli (protein, UniProt Q99504 1-573, looked up, variant K75A)
Protein phosphatase EYA3: MEEEQDLPEQPVKKAKMQESGEQTISQVSNPDVSDQKPETSSLASNLPMSEEIMTCTDYIPRSSNDYTSQMYSAAPYAHILSVPVSETAYPGQTQYQTLQQTQPYAVYPQATQTYGLPPFGALWPGMKPESGLIQTPSPSQHSVLTCTTGLTTSQPSPAHYSYPIQASSTNASLISTSSTIANIPAAAVASISNQDYPTYTILGQNQYQACYPSSSFGVTGQTNSDAESTTLAATTYQSEKPSVMAPAPAAQRLSSGDPSTSPSLSQTTPSKDTDDQSRKNMTSKNRGKRKADATSSQDSELERVFLWDLDETIIIFHSLLTGSYAQKYGKDPTVVIGSGLTMEEMIFEVADTHLFFNDLEECDQVHVEDVASDDNGQDLSNYSFSTDGFSGSGGSGSHGSSVGVQGGVDWMRKLAFRYRKVREIYDKHKSNVGGLLSPQRKEALQRLRAEIEVLTDSWLGTALKSLLLIQSRKNCVNVLITTTQLVPALAKVLLYGLGEIFPIENIYSATKIGKESCFERIVSRFGKKVTYVVIGDGRDEEIAAKQHNMPFWRITNHGDLVSLHQALELDFL
binding between Eya3 and B55 (mutants) (B55α (His-B55)): significantly reduce the binding between Eya3 and B55

B4: Y77A: Eya3 Y77A mutant protein from E. coli (protein, UniProt Q99504 1-573, looked up, variant Y77A)
Protein phosphatase EYA3: MEEEQDLPEQPVKKAKMQESGEQTISQVSNPDVSDQKPETSSLASNLPMSEEIMTCTDYIPRSSNDYTSQMYSAKPAAHILSVPVSETAYPGQTQYQTLQQTQPYAVYPQATQTYGLPPFGALWPGMKPESGLIQTPSPSQHSVLTCTTGLTTSQPSPAHYSYPIQASSTNASLISTSSTIANIPAAAVASISNQDYPTYTILGQNQYQACYPSSSFGVTGQTNSDAESTTLAATTYQSEKPSVMAPAPAAQRLSSGDPSTSPSLSQTTPSKDTDDQSRKNMTSKNRGKRKADATSSQDSELERVFLWDLDETIIIFHSLLTGSYAQKYGKDPTVVIGSGLTMEEMIFEVADTHLFFNDLEECDQVHVEDVASDDNGQDLSNYSFSTDGFSGSGGSGSHGSSVGVQGGVDWMRKLAFRYRKVREIYDKHKSNVGGLLSPQRKEALQRLRAEIEVLTDSWLGTALKSLLLIQSRKNCVNVLITTTQLVPALAKVLLYGLGEIFPIENIYSATKIGKESCFERIVSRFGKKVTYVVIGDGRDEEIAAKQHNMPFWRITNHGDLVSLHQALELDFL
binding between Eya3 and B55 (mutants) (B55α (His-B55)): significantly reduce the binding between Eya3 and B55
apparent S/T phosphatase activity of Eya3 [2]: abolish the apparent S/T phosphatase activity of Eya3

B5: Eya3 NTD: Eya3 N-terminal domain protein (NTD, residues 1–250) (protein, UniProt Q99504 1-250, looked up, fragment)
chain: MEEEQDLPEQPVKKAKMQESGEQTISQVSNPDVSDQKPETSSLASNLPMSEEIMTCTDYIPRSSNDYTSQMYSAKPYAHILSVPVSETAYPGQTQYQTLQQTQPYAVYPQATQTYGLPPFGALWPGMKPESGLIQTPSPSQHSVLTCTTGLTTSQPSPAHYSYPIQASSTNASLISTSSTIANIPAAAVASISNQDYPTYTILGQNQYQACYPSSSFGVTGQTNSDAESTTLAATTYQSEKPSVMAPAPA
phosphatase activity of PP2A–B55 (Padi et al. buffer) (PP2A–B55 [3]; 25 nM PP2A–B55, 1 μM Eya3 NTD, 30 mM Hepes (pH 7.0), 150 mM NaCl, 1 mM MnCl2, 1 mM DTT, 0.01% Triton X-100, 0.1 mg/ml BSA, room temperature 10 min, then 37 °C 30 min, ex 485/em 515 nm): inhibits the phosphatase activity of PP2A–B55
phosphatase activity of PP2A–B55 (previous buffer) (PP2A–B55 [3]; buffer 50 mM Tris [pH 7.5], 50 mM NaCl, 5 mM MgCl2, 0.1 mM EDTA, with vs without Eya3 NTD): increases the phosphatase activity of PP2A–B55
